Measurements taken from paper PMC2660430.
Substitutions are numbered along the chain they refer to. Names and notes keep the numbering of the source.

B1: PfGrx1 (wild type glutaredoxin) C32S (protein)
chain: MAGTSEAVKKWVNKIIEENIIAVFAKTECPYSIKAISILKGYNLNSHMHVENIEKNPDMANIQAYLKELTGKSSVPRIFINKDVVGGCDDLVKENDEGKLKERLQKLGLVN
B2: PfGrx1 (wild type glutaredoxin) C29S; C32S (protein)
chain: B1 chain with C29S

Molecular target: PfSAHH (recombinant S-adenosyl-L-homocysteine hydrolase), P50250
Assay: SPR
Conditions: chain shown with the change; Maximum response at end of analyte injection; SAHH on the sensor surface oxidized with 0.5 mM DTNB; 30 µl of analyte, 10 µM in HBS buffer; pre-injection …; parent: est. 93; read off a plot

PfSAHH (recombinant S-adenosyl-L-homocysteine hydrolase), P50250, sequence (P50250 whole entry): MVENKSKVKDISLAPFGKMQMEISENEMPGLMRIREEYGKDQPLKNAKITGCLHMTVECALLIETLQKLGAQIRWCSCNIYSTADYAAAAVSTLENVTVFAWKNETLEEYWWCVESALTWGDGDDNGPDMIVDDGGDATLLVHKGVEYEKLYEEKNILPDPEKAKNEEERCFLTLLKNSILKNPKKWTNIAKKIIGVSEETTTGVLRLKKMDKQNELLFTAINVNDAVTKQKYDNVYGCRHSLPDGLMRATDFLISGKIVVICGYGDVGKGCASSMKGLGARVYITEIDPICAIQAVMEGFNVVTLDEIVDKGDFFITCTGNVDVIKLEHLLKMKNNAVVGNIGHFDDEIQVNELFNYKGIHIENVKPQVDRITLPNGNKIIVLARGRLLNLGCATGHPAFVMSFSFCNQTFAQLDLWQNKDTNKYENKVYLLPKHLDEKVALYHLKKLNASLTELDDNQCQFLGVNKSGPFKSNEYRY

Binder | response (RD (normalized))
B1 | 98
B2 | 59
